T1: human TIGIT protein (human, UniProt Q495A1 22-141, limits assumed)
T1 construct: Recombinant protein (Genentech) used in ELISA screening and as SPR analyte; also called TIGIT antigen
T1 sequence: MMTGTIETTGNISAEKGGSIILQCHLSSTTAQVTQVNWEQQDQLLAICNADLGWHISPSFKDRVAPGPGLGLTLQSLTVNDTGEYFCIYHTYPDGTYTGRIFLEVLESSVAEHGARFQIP

B1: h15C8.L1H8 (antibody, V domains shown)
VH: EVQLVQSGAEVKKPGASVKVSCKASGYTFTEHSIYWLRQAPGQRLEIIGRIDPKNGRTYFVDKFKNRATLTTDTSASTAYMELSSLRSEDTAVYYCARIDGFYFDFWGQGTLVTVSS
VL: DIQLTQSPSFLSASVGDRVTITCKGSQNVNKYLVWYQQKPGKAPKLLIYSTDNLQSGIPSRFSGSGSGTEYTLTISSLQPEDFATYFCYQYNNGFTFGQGTKVEIK
notes: VH: F91Y against h15C8.L1H1; FR/HVR pieces
B2: h15C8.L2H1 (antibody, V domains shown)
VH: EVQLVQSGAEVKKPGASVKVSCKASGYTFTEHSIYWLRQAPGQRLEIIGRIDPKNGRTYFVDKFKNRATLTTDTSASTAYMELSSLRSEDTAVYFCARIDGFYFDFWGQGTLVTVSS
VL: DIQLTQSPSFLSASVGDRVTITCKGSQNVNKYLVWYQQKPGKAPKLLIYSTDNLQSGVPSRFSGSGSGTEYTLTISSLQPEDFATYFCYQYNNGFTFGQGTKVEIK
notes: VL: I58V against h15C8.L1H1; FR/HVR pieces
B3: h6B2.L1H1 (antibody, V domains shown)
VH: EVTLKESGPALVKPTQTLTLTCTFSGFSLSTYGMGVSWIRQPPGKALEWLASIWWNGNTYYNPSLKSRLTVTKDASKNQAVLTMTNMDPVDTATYYCAHTGGAVITWFAYWGQGTLVTVSS
VL: DIQMTQSPSSLSASVGDRVTITCKASQSVGKNIAWYQQKPGKSPKLLIYYASNRYTGVPSRFSGSGSGTDFTFTISSLQPEDIATYYCQHIYNSPYPFGQGTKVEIK
notes: Humanized; FR/HVR pieces in order; also called h1.6B2.L1H1
B4: h10A5.L4H4 (antibody, V domains shown)
VH: EVTLKESGPALVKPTQTLTLTCTFSGFSLTTYGMGVSWIRQPPGKALEWLASIWWNGNTYYNPSLRSRLTITKDTSKNQVVLTMTNMDPVDTATYYCAHTGGAVITWFAYWGQGTLVTVSS
VL: EIVMTQSPATLSVSPGERATLSCKASQSVGKNIAWYQQKPGQAPRLLIYYASNRYTGIPARFSGSGSGTEFTLTISSLQSEDFAVYYCQHIYNSPYPFGQGTKVEIK
notes: Fully humanized version; FR/HVR pieces in order
B5: h10A5.L1H1 (antibody, V domains shown)
VH: EVTLKESGPALVKPTQTLTLTCTFSGFSLTTYGMGVSWIRQPPGKALEWLASIWWNGNTYYNPSLRSRLTVTKDTSKNQAVLTMTNMDPVDTATYYCAHTGGAVITWFAYWGQGTLVTVSS
VL: EIVMTQSPATLSVSPGERATLSCKASQSVGKNIAWYQQKPGQSPRLLIYYASNRYTGVPARFSGSGSGTEFTLTISSLQSEDFAVYYCQHIYNSPYPFGQGTKVEIK
notes: Humanized; FR/HVR pieces in order; also called h1.10A5.L1H1
B6: 4.1A4.Q1E.C96 (antibody, V domains shown)
VH: EVQLVQSGSELKKPGASVKVSCKASGYTLTNYPMNWVRQAPGRGLEWMGWINTNTGSPAYAQDFTERFVFSLDTSVTTAYLQISSLKAEDTAVYYCARTAITSVYHFDYWGQGTLVTVSS
VL: DIQLTQSPSFLSASVGDRVTITCRASQGISSYLAWYQQKPGKAPRVLIYGATTLQSGVPSRFSGSESGTEFTLTISSLQPEDLATYYCQKLNSHPCSFGQGTKVEIK
notes: built from its name as 4.1A4 with Q1E in VH and C96 kept in VL
B7: 7.4A3.Q1E.C96 (antibody, V domains shown)
VH: EVQLVQSGSDLKKPGASVRVSCKASGYTFTSYPMNWVRQAPGHGLEWMGWINTNTGNPTYVQGFTGRFVFSLDTSVNTAYLQISSLKAEDTAVYFCARTGGHTYDSYAFDVWGQGTMVTVSS
VL: DIQLTQSPTFLSASVGDRVTITCRASQVISSSLAWYQQNPGKAPKLLIYAASTLQSGVPSRFSGSGSGTEFTLTISSLQPEDFVTYYCQHLHGYPCNFGQGTKVEIK
notes: built from its name as 7.4A3 with Q1E in VH and C96 kept in VL

What was measured:
[1] = biological target: T1, human TIGIT protein; experiment: SPR, captured mAb
Experimental: (§1) Briefly, a series S CM5 biosensor chip was activated with N-ethyl-N′-(3-dimethylaminopropyl)-carbodiimide hydrochloride (EDC) and N-hydroxysuccinimide (NHS) reagents according to the supplier's (GE Healthcare Biosciences, Piscataway, N.J.) instructions, and a human antibody capture kit was applied to couple goat anti-human Fc IgGs in order to achieve approximately 10,000 response units (RU) on each flow cell, followed by blocking un-reacted groups with 1M ethanolamine.
(§2) (flow rate: 30 μl/min) with no regeneration between injections. The sensorgrams were recorded and evaluated by BIAcore™ T200 Evaluation Software (version 2.0) after subtraction of reference cell signal. Association rates (kₒₙ) and dissociation rates (koff) were calculated using a simple one-to-one Langmuir binding model. The equilibrium dissociation constant (KD) was calculated as the ratio koff/kₒₙ.
(§3) The first humanized versions, h6B2, L1H1, h10A5.L1H1, h7E7, L1H1, and h15C8.L1H1, which contain both rat CDRs and framework residues at Vernier positions, and the fully humanized versions, h6B2.L2H5, h10A5.L4H4, h7E7.L5H9, and h15C8.L5H9, which contain only rat CDRs were subject to BIAcore affinity measurement by comparison with original rat antibodies, rat6B2, rat10A5, rat7E7 and rat 15C8. For binding affinity determinations of TIGIT antibodies against human TIGIT, cynomolgus monkey TIGIT and human alanine-scanned TIGIT mutants by single-cycle kinetics, Surface Plasmon Resonance (SRP) measurement with a BIACORE™-T200 instrument was used, as described above.

[2] = biological target: T2, cynomolgus monkey (cyno) TIGIT protein (cynomolgus monkey, UniProt A0A7N9I9V4 89-209); experiment: SPR, captured mAb
Experimental: as §1, §2, §3

[3] = biological target: T1, human TIGIT protein; experiment: SPR, monovalent affinity
[4] = biological target: T2, cynomolgus monkey (cyno) TIGIT protein; experiment: SPR, monovalent affinity

T2 sequence (A0A7N9I9V4 entry or part of it): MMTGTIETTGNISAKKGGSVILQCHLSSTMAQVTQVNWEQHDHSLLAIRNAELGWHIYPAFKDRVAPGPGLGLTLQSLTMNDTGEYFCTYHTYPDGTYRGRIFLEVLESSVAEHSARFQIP

Row | Binder | Kd [1] [nM] | koff [1] [s⁻¹] | kon [1] [M⁻¹ s⁻¹] | Kd [2] [nM] | koff [2] [s⁻¹] | kon [2] [M⁻¹ s⁻¹] | Kd [3] [nM] | Kd [4] [nM]
1 | B1 | 0.61 | 0.000381 | 620000 | 0.41 | 0.000119 | 291000 |  | 
2 | B2 | 0.66 | 0.000506 | 771000 | 1 | 0.000502 | 502000 |  | 
3 | B3 | 0.54 | 0.00253 | 4.67e+06 | 0.96 | 0.00118 | 1.23e+06 | 0.54 | 0.96
4 | B4 | 0.44 | 0.00227 | 5.21e+06 | 0.85 | 0.00129 | 1.52e+06 |  | 
5 | B5 | 0.52 | 0.00238 | 4.57e+06 | 0.86 | 0.00127 | 1.47e+06 | 0.52 | 0.86
6 | B6 |  |  |  |  |  |  | 3.6 | 2.4
7 | B7 |  |  |  |  |  |  | 3.45 | 2.09
